Test results: article PMC3744072, “Analysis of the cartilage proteome from three different mouse models of genetic skeletal diseases reveals common and discrete disease signatures” (Biology Open, 2013)
Where “and” joins values, the source holds several entries; their conditions need not be identical. Equal values may be shown once.

B1: cartilage oligomeric matrix protein (COMP), wild type, mouse (natural protein)
chain: not shown
notes: cartilage oligomeric matrix protein, mouse, endogenous in chondrocytes; The text calls the retained form consistent with a tetramer; also called wild type COMP; source: endogenous, lysate of isolated costal chondrocytes of Matn3 V194D mice
B2: matrilin-4 (mouse) (natural protein, mouse (endogenous in mouse cartilage), UniProt O89029 22-624, looked up)
chain: QLQSAGPRCYNGPLDLVFMIDSSRSVRPFEFETMRQFLVGLLRSLDVGLNATRVGVIQYSSQVQSVFPLGAFSRREDMERAIRAVVPLAQGTMTGLAIQYAMNVAFSEAEGARPSEERVPRVLVIVTDGRPQDRVAEVAAQARARGIEIYAVGVQRADVGSLRTMASPPLDQHVFLVESFDLIQEFGLQFQGRLCGKDLCAELVHGCQHLCVNAPGTFYCACNSGYKLAPDNKNCLALDLCAEGTHGCEHLCVNSVDSYFCRCRAGFALQQDQRSCRAIDYCSFGNHSCQHECVSTLAGPQCRCREGHDLLPDGRSCRVRDFCNGVDHGCEFQCVSEGLSFHCLCPEGRRLQADGKSCDRCREGHVDLVLLVDGSKSVRPQNFELVKRFVNQIVDFLDVSPEGTRVGLVQFSSRVRTEFPLGRYGTAAEVKQAVLAVEYMERGTMTGLALRHMVEHSFSEAQGARPRDLNVPRVGLVFTDGRSQDDISVWAARAKEEGIVMYAVGVGKAVEEELREIASEPSELHVSYSPDFSTMTHLLENLKGSICPEEGIGAGTELRSPCECESLVEFQGRTLGALESLTQNLARLTERLEELENQLASRK
notes: matrilin-4, mouse, endogenous in cartilage

Key:
[1] = target: the molecule itself; assay: non-reducing SDS-PAGE and Western blot; total protein lysates of isolated chondrocytes of 5-day-old mice, 4-12% gels, non-reduced against reduced (0.1 M DTT); oligomers assigned by apparent size
[2] = target: the molecule itself; assay: non-reducing SDS-PAGE and Western blot; sequential extracts (buffer 1: 0.15 M NaCl; buffer 2: 1 M NaCl, 10 mM EDTA; buffer 3: 4 M GuHCl, 10 mM EDTA) of knee cartilage of 3-week-old mice, non-reducing 4-13.5% gels; oligomers assigned by apparent size

| Protein | stoichiometry N [1] | stoichiometry N [2] |
| --- | --- | --- |
| B1 | 4 |  |
| B2 |  | 2 and 3 |
